Measured values as given in patent publication US9937235B2, “Lipidated peptides as anti-obesity agents” (USTAV ORGANICKE CHEMIE A BIOCHEMIE AKADEMIE VED CR, V.V.I, priority 2012, dated 2018).
Where no end group is shown, it is not given here. [ ]: non-standard residue; d: D form. The star is where a group is joined. Myristoyl = CCCCCCCCCCCCCC(=O)*; Lauroyl = CCCCCCCCCCCC(=O)*; Decanoyl = CCCCCCCCCC(=O)*; NMeA = CN[C@@H](C)C(=O)O; Nle = CCCC[C@H](N)C(=O)O; Octanoyl = CCCCCCCC(=O)*

T1: rat PrRP receptor in RC-4B/C cells (rat, UniProt Q64121 1-370)
T1 construct: whole, on cells; also called the rat receptor; GPR10
T1 sequence (looked up): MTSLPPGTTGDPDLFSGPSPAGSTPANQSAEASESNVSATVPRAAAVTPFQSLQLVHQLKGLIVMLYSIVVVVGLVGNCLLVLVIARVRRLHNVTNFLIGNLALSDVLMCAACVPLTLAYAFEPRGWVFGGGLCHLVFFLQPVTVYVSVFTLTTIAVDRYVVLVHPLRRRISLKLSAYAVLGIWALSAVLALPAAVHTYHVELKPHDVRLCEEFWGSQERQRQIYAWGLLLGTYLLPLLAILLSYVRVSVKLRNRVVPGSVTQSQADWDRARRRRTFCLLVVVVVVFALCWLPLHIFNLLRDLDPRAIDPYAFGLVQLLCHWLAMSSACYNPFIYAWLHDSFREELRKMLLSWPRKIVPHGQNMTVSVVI

T2: human PrRP receptor, GPR10, transfected in CHO cells (human, UniProt P49683 1-370)
T2 construct: whole, on cells; also called human GPR10 receptor; the human receptor GPR10 in CHO cells
T2 sequence (looked up): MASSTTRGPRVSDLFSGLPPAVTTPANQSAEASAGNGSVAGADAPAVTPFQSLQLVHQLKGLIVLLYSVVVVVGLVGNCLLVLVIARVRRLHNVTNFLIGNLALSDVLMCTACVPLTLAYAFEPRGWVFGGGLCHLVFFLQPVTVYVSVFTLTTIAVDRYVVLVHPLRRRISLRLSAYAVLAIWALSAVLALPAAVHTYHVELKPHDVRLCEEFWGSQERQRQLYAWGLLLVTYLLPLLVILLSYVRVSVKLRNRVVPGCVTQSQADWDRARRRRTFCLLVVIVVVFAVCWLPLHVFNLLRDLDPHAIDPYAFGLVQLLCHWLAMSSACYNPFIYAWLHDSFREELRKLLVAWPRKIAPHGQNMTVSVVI


Experiments:
[1] = molecular target: T1, rat PrRP receptor in RC-4B/C cells; assay: competition with 125I-rat PrRP31 on RC-4B/C cells
Description: The rat pituitary cell line RC-4B/C (ATCC, Manassas, USA) was grown on 24-well plates which had their bottom coated with polyethyleneimine. The cells were grown to the optimal density of 300-450 thousand per well.
(§1) Plates were incubated for 60 minutes at room temperature. After incubation, the cells were solubilized in 0.1 mol/l solution of NaOH and the radioactivity bound to the cells was counted using a γ-counter. The experiments were performed in duplicate and repeated at least three times.
For evaluation of competitive binding experiments, the program Graph Pad Prism Software (San Diego, Calif., USA) was used. A method of nonlinear regression assuming one-site binding was used.

[2] = molecular target: T2, human PrRP receptor, GPR10, transfected …; assay: competition with 125I-human PrRP31 on CHO cells with transfected human GPR10
Description: CHO cells with transfected human PrRP receptor, GPR10 (Perkin Elmer, USA) were grown on 24-well plates coated with polyethyleneimine. The cells were grown to the optimal density of 40-80 thousand cells per well.
as §1

| Binder | Ki [1] [nM] | Ki [2] [nM] |
| --- | --- | --- |
| TPDINPAWYTGRGARPFGRF-NH2 [analog no. 42] | 655 | 583 |
| Myristoyl-TPDINPAWYTGRGARPFGRF-NH2 (SMILES CCCCCCCCCCCCCC(=O)N[C@H](C(=O)N1CCC[C@H]1C(=O)N[C@@H](CC(=O)O)C(=O)N[C@H](C(=O)N[C@@H](CC(N)=O)C(=O)N1CCC[C@H]1C(=O)N[C@@H](C)C(=O)N[C@@H](Cc1c[nH]c2ccccc12)C(=O)N[C@@H](Cc1ccc(O)cc1)C(=O)N[C@H](C(=O)NCC(=O)N[C@@H](CCCNC(=N)N)C(=O)NCC(=O)N[C@@H](C)C(=O)N[C@@H](CCCNC(=N)N)C(=O)N1CCC[C@H]1C(=O)N[C@@H](Cc1ccccc1)C(=O)NCC(=O)N[C@@H](CCCNC(=N)N)C(=O)N[C@@H](Cc1ccccc1)C(N)=O)[C@@H](C)O)[C@@H](C)CC)[C@@H](C)O) [analog no. 43] | 7.21 | 8.47 |
| Octanoyl-TPDINPAWYASRGIRPVGRF-NH2 (SMILES CCCCCCCC(=O)N[C@H](C(=O)N1CCC[C@H]1C(=O)N[C@@H](CC(=O)O)C(=O)N[C@H](C(=O)N[C@@H](CC(N)=O)C(=O)N1CCC[C@H]1C(=O)N[C@@H](C)C(=O)N[C@@H](Cc1c[nH]c2ccccc12)C(=O)N[C@@H](Cc1ccc(O)cc1)C(=O)N[C@@H](C)C(=O)N[C@@H](CO)C(=O)N[C@@H](CCCNC(=N)N)C(=O)NCC(=O)N[C@H](C(=O)N[C@@H](CCCNC(=N)N)C(=O)N1CCC[C@H]1C(=O)N[C@H](C(=O)NCC(=O)N[C@@H](CCCNC(=N)N)C(=O)N[C@@H](Cc1ccccc1)C(N)=O)C(C)C)[C@@H](C)CC)[C@@H](C)CC)[C@@H](C)O) [analog no. 52] | – | 3.02 |
| Lauroyl-TPDINPAWYASRGIRPVGRF-NH2 (SMILES CCCCCCCCCCCC(=O)N[C@H](C(=O)N1CCC[C@H]1C(=O)N[C@@H](CC(=O)O)C(=O)N[C@H](C(=O)N[C@@H](CC(N)=O)C(=O)N1CCC[C@H]1C(=O)N[C@@H](C)C(=O)N[C@@H](Cc1c[nH]c2ccccc12)C(=O)N[C@@H](Cc1ccc(O)cc1)C(=O)N[C@@H](C)C(=O)N[C@@H](CO)C(=O)N[C@@H](CCCNC(=N)N)C(=O)NCC(=O)N[C@H](C(=O)N[C@@H](CCCNC(=N)N)C(=O)N1CCC[C@H]1C(=O)N[C@H](C(=O)NCC(=O)N[C@@H](CCCNC(=N)N)C(=O)N[C@@H](Cc1ccccc1)C(N)=O)C(C)C)[C@@H](C)CC)[C@@H](C)CC)[C@@H](C)O) [analog no. 54] | – | 2.41 |
| [Nle]ETRTPDINPAWYTGRGIRPVGRF-NH2 (N-terminus assumed; SMILES CCCC[C@H](N)C(=O)N[C@@H](CCC(=O)O)C(=O)N[C@H](C(=O)N[C@@H](CCCNC(=N)N)C(=O)N[C@H](C(=O)N1CCC[C@H]1C(=O)N[C@@H](CC(=O)O)C(=O)N[C@H](C(=O)N[C@@H](CC(N)=O)C(=O)N1CCC[C@H]1C(=O)N[C@@H](C)C(=O)N[C@@H](Cc1c[nH]c2ccccc12)C(=O)N[C@@H](Cc1ccc(O)cc1)C(=O)N[C@H](C(=O)NCC(=O)N[C@@H](CCCNC(=N)N)C(=O)NCC(=O)N[C@H](C(=O)N[C@@H](CCCNC(=N)N)C(=O)N1CCC[C@H]1C(=O)N[C@H](C(=O)NCC(=O)N[C@@H](CCCNC(=N)N)C(=O)N[C@@H](Cc1ccccc1)C(N)=O)C(C)C)[C@@H](C)CC)[C@@H](C)O)[C@@H](C)CC)[C@@H](C)O)[C@@H](C)O, shortened PrRP31 analog) [analog no. 46] | 2.94 | 3.44 |
| Decanoyl-TPDINPAWYASRGIRPVGRF-NH2 (SMILES CCCCCCCCCC(=O)N[C@H](C(=O)N1CCC[C@H]1C(=O)N[C@@H](CC(=O)O)C(=O)N[C@H](C(=O)N[C@@H](CC(N)=O)C(=O)N1CCC[C@H]1C(=O)N[C@@H](C)C(=O)N[C@@H](Cc1c[nH]c2ccccc12)C(=O)N[C@@H](Cc1ccc(O)cc1)C(=O)N[C@@H](C)C(=O)N[C@@H](CO)C(=O)N[C@@H](CCCNC(=N)N)C(=O)NCC(=O)N[C@H](C(=O)N[C@@H](CCCNC(=N)N)C(=O)N1CCC[C@H]1C(=O)N[C@H](C(=O)NCC(=O)N[C@@H](CCCNC(=N)N)C(=O)N[C@@H](Cc1ccccc1)C(N)=O)C(C)C)[C@@H](C)CC)[C@@H](C)CC)[C@@H](C)O) [analog no. 53] | – | 2.41 |
| QHSMETRTPDINPAWYTGRGIRPVGRF-NH2 (shortened PrRP31 analog) [analog no. 48] | 2.61 | 5.92 |
| Myristoyl-QHSMETRTPDINPAWYTGRGIRPVGRF-NH2 (SMILES CCCCCCCCCCCCCC(=O)N[C@@H](CCC(N)=O)C(=O)N[C@@H](Cc1c[nH]cn1)C(=O)N[C@@H](CO)C(=O)N[C@@H](CCSC)C(=O)N[C@@H](CCC(=O)O)C(=O)N[C@H](C(=O)N[C@@H](CCCNC(=N)N)C(=O)N[C@H](C(=O)N1CCC[C@H]1C(=O)N[C@@H](CC(=O)O)C(=O)N[C@H](C(=O)N[C@@H](CC(N)=O)C(=O)N1CCC[C@H]1C(=O)N[C@@H](C)C(=O)N[C@@H](Cc1c[nH]c2ccccc12)C(=O)N[C@@H](Cc1ccc(O)cc1)C(=O)N[C@H](C(=O)NCC(=O)N[C@@H](CCCNC(=N)N)C(=O)NCC(=O)N[C@H](C(=O)N[C@@H](CCCNC(=N)N)C(=O)N1CCC[C@H]1C(=O)N[C@H](C(=O)NCC(=O)N[C@@H](CCCNC(=N)N)C(=O)N[C@@H](Cc1ccccc1)C(N)=O)C(C)C)[C@@H](C)CC)[C@@H](C)O)[C@@H](C)CC)[C@@H](C)O)[C@@H](C)O, lipidated shortened PrRP31 analog) [analog no. 49] | 0.37 | 6.93 |
| Myristoyl-[Nle]ETRTPDINPAWYTGRGIRPVGRF-NH2 (SMILES CCCCCCCCCCCCCC(=O)N[C@@H](CCCC)C(=O)N[C@@H](CCC(=O)O)C(=O)N[C@H](C(=O)N[C@@H](CCCNC(=N)N)C(=O)N[C@H](C(=O)N1CCC[C@H]1C(=O)N[C@@H](CC(=O)O)C(=O)N[C@H](C(=O)N[C@@H](CC(N)=O)C(=O)N1CCC[C@H]1C(=O)N[C@@H](C)C(=O)N[C@@H](Cc1c[nH]c2ccccc12)C(=O)N[C@@H](Cc1ccc(O)cc1)C(=O)N[C@H](C(=O)NCC(=O)N[C@@H](CCCNC(=N)N)C(=O)NCC(=O)N[C@H](C(=O)N[C@@H](CCCNC(=N)N)C(=O)N1CCC[C@H]1C(=O)N[C@H](C(=O)NCC(=O)N[C@@H](CCCNC(=N)N)C(=O)N[C@@H](Cc1ccccc1)C(N)=O)C(C)C)[C@@H](C)CC)[C@@H](C)O)[C@@H](C)CC)[C@@H](C)O)[C@@H](C)O, lipidated shortened PrRP31 analog) [analog no. 47] | 0.45 | 5.48 |
| TPDINPAWY[NMeA]SRGIRPVGRF-NH2 (N-terminus assumed; SMILES CC[C@H](C)[C@H](NC(=O)CNC(=O)[C@H](CCCNC(=N)N)NC(=O)[C@H](CO)NC(=O)[C@H](C)N(C)C(=O)[C@H](Cc1ccc(O)cc1)NC(=O)[C@H](Cc1c[nH]c2ccccc12)NC(=O)[C@H](C)NC(=O)[C@@H]1CCCN1C(=O)[C@H](CC(N)=O)NC(=O)[C@@H](NC(=O)[C@H](CC(=O)O)NC(=O)[C@@H]1CCCN1C(=O)[C@@H](N)[C@@H](C)O)[C@@H](C)CC)C(=O)N[C@@H](CCCNC(=N)N)C(=O)N1CCC[C@H]1C(=O)N[C@H](C(=O)NCC(=O)N[C@@H](CCCNC(=N)N)C(=O)N[C@@H](Cc1ccccc1)C(N)=O)C(C)C) [analog no. 40] | 49.4 | 8.72 |
| Myristoyl-TPDINPAWYASRPFRPVGRF-NH2 (SMILES CCCCCCCCCCCCCC(=O)N[C@H](C(=O)N1CCC[C@H]1C(=O)N[C@@H](CC(=O)O)C(=O)N[C@H](C(=O)N[C@@H](CC(N)=O)C(=O)N1CCC[C@H]1C(=O)N[C@@H](C)C(=O)N[C@@H](Cc1c[nH]c2ccccc12)C(=O)N[C@@H](Cc1ccc(O)cc1)C(=O)N[C@@H](C)C(=O)N[C@@H](CO)C(=O)N[C@@H](CCCNC(=N)N)C(=O)N1CCC[C@H]1C(=O)N[C@@H](Cc1ccccc1)C(=O)N[C@@H](CCCNC(=N)N)C(=O)N1CCC[C@H]1C(=O)N[C@H](C(=O)NCC(=O)N[C@@H](CCCNC(=N)N)C(=O)N[C@@H](Cc1ccccc1)C(N)=O)C(C)C)[C@@H](C)CC)[C@@H](C)O) [analog no. 45] | 0.84 | 0.58 |
| TPDINPAWYASRPFRPVGRF-NH2 [analog no. 44] | 2.14 | 1.73 |
